Experimental data reported in the supplement of paper PMC5998384.

Experiments:
[1] = system: HeLa Kyoto; experiment: melting temperature (median over replicates), in situ; higher = more thermally stable
[2] = system: HeLa Kyoto; experiment: solubility change mitosis vs G1/S (difference of NP-40 vs SDS log2 ratios) (log2 ratio difference); higher = more soluble in mitosis
[3] = system: HeLa Kyoto; experiment: solubility in G1/S (NP-40 vs SDS abundance) (log2 ratio); higher = more soluble; settings: cell cycle stage: G1/S
[4] = system: HeLa Kyoto; experiment: thermal stability score vs G1/S (z-score of summed log2 fold changes over temperatures); higher = more thermally stable than in G1/S
[5] = cell cycle stage: early G1 (4.5 h after nocodazole release)
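Throughout, for melting temperature (median over replicates), in situ: HeLa Kyoto cells synchronized by double thymidine or nocodazole block, proteins quantified by TMT10plex mass spectrometry, three independent biological replicates.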
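Throughout, for solubility change mitosis vs G1/S (difference of NP-40 vs SDS log2 ratios): synchronized HeLa Kyoto cells (double thymidine block for G1/S, nocodazole release for mitosis), protein amounts in NP-40 versus SDS lysates quantified by mass spectrometry, three biological replicates.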
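Throughout, for solubility in G1/S (NP-40 vs SDS abundance): HeLa Kyoto cells arrested at G1/S by double thymidine block, proteins quantified by TMT10plex mass spectrometry in mild NP-40 versus SDS extracts, three biological replicates.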
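Throughout, for thermal stability score vs G1/S (z-score of summed log2 fold changes over temperatures): synchronized HeLa Kyoto cells, proteins quantified by TMT10plex mass spectrometry, three biological replicates, mitosis taken 0.5 h after nocodazole release, G1/S directly after double thymidine block.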

NARFL, sequence (chain, as listed by the source): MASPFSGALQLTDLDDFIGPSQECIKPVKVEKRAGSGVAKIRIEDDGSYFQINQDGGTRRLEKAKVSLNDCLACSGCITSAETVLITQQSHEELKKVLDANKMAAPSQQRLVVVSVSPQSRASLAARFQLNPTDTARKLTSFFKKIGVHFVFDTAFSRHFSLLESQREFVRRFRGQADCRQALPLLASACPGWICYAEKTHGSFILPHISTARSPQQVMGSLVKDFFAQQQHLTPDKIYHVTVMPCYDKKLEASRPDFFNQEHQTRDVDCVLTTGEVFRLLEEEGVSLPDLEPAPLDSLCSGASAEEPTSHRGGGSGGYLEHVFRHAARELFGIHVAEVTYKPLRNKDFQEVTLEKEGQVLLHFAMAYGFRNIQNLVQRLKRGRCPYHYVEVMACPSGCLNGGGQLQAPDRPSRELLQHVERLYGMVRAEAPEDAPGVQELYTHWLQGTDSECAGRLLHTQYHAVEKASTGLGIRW

Row | Substance | melting temperature ([1]; cell cycle stage: G1/S) | melting temperature ([1]; cell cycle stage: mitosis) | solubility change mitosis (log2) [2] | solubility in G1/S (log2) [3] | thermal stability score [4, 5] | thermal stability score ([4]; cell cycle stage: mitosis)
1 | MEDEMPKTLYVGNLSRDVTEALILQLFSQIGPCKNCKMIMDTAGNDPYCFVEFHEHRHAAAALAAMNGRKIMGKEVKVNWATTPSSQKKDTSSSTVVSTQRSQDHFHVFVGDLSPEITTEDIKAAFAPFGRISDARVVKDMATGKSKGYGFVSFFNKWDAENAIQQMGGQWLGGRQIRTNWATRKPPAPKSTYESNTKQLSYDEVVNQSSPSNCTVYCGGVTSGLTEQLMRQTFSPFGQIMEIRVFPDKGYSFVRFNSHESAAHAIVSVNGTTIEGHVVKCYWGKETLDMINPVQQQNQIGYPQPYGQWGQWYGNAQQIGQYMPNGWQVPAYGMYGQAWNQQGFNQTQSSAPWMGPNYGVQPPQGQNGSMLPNQPSGYRVAGYETQ [TIA1] | 53.5 °C | 53 °C | 0.0786 | 0.0405 | -0.653 | -1.44
2 | MKKFSRMPKSEGGSGGGAAGGGAGGAGAGAGCGSGGSSVGVRVFAVGRHQVTLEESLAEGGFSTVFLVRTHGGIRCALKRMYVNNMPDLNVCKREITIMKELSGHKNIVGYLDCAVNSISDNVWEVLILMEYCRAGQVVNQMNKKLQTGFTEPEVLQIFCDTCEAVARLHQCKTPIIHRDLKVENILLNDGGNYVLCDFGSATNKFLNPQKDGVNVVEEEIKKYTTLSYRAPEMINLYGGKPITTKADIWALGCLLYKLCFFTLPFGESQVAICDGNFTIPDNSRYSRNIHCLIRFMLEPDPEHRPDIFQVSYFAFKFAKKDCPVSNINNSSIPSALPEPMTASEAAARKSQIKARITDTIGPTETSIAPRQRPKANSATTATPSVLTIQSSATPVKVLAPGEFGNHRPKGALRPGNGPEILLGQGPPQQPPQQHRVLQQLQQGDWRLQQLHLQHRHPHQQQQQQQQQQQQQQQQQQQQQQQQQQQHHHHHHHHLLQDAYMQQYQHATQQQQMLQQQFLMHSVYQPQPSASQYPTMMPQYQQAFFQQQMLAQHQPSQQQASPEYLTSPQEFSPALVSYTSSLPAQVGTIMDSSYSANRSVADKEAIANFTNQKNISNPPDMSGWNPFGEDNFSKLTEEELLDREFDLLRSNRLEERASSDKNVDSLSAPHNHPPEDPFGSVPFISHSGSPEKKAEHSSINQENGTANPIKNGKTSPASKDQRTGKKTSVQGQVQKGNDESESDFESDPPSPKSSEEEEQDDEEVLQGEQGDFNDDDTEPENLGHRPLLMDSEDEEEEEKHSSDSDYEQAKAKYSDMSSVYRDRSGSGPTQDLNTILLTSAQLSSDVAVETPKQEFDVFGAVPFFAVRAQQPQQEKNEKNLPQHRFPAAGLEQEEFDVFTKAPFSKKVNVQECHAVGPEAHTIPGYPKSVDVFGSTPFQPFLTSTSKSESNEDLFGLVPFDEITGSQQQKVKQRSLQKLSSRQRRTKQDMSKSNGKRHHGTPTSTKKTLKPTYRTPERARRHKKVGRRDSQSSNEFLTISDSKENISVALTDGKDRGNVLQPEESLLDPFGAKPFHSPDLSWHPPHQGLSDIRADHNTVLPGRPRQNSLHGSFHSADVLKMDDFGAVPFTELVVQSITPHQSQQSQPVELDPFGAAPFPSKQ [BMP2K] | 50.5 °C | 51.1 °C | -0.0153 | -0.292 | 0.793 | 0.398
3 | C20ORF27 | 53.3 °C | 54.8 °C | -0.035 | 0.205 | -0.424 | -1.13
4 | MGRKLDPTKEKRGPGRKARKQKGAETELVRFLPAVSDENSKRLSSRARKRAAKRRLGSVEAPKTNKSPEAKPLPGKLPKGISAGAVQTAGKKGPQSLFNAPRGKKRPAPGSDEEEEEEDSEEDGMVNHGDLWGSEDDADTVDDYGADSNSEDEEEGEALLPIERAARKQKAREAAAGIQWSEEETEDEEEEKEVTPESGPPKVEEADGGLQINVDEEPFVLPPAGEMEQDAQAPDLQRVHKRIQDIVGILRDFGAQREEGRSRSEYLNRLKKDLAIYYSYGDFLLGKLMDLFPLSELVEFLEANEVPRPVTLRTNTLKTRRRDLAQALINRGVNLDPLGKWSKTGLVVYDSSVPIGATPEYLAGHYMLQGASSMLPVMALAPQEHERILDMCCAPGGKTSYMAQLMKNTGVILANDANAERLKSVVGNLHRLGVTNTIISHYDGRQFPKVVGGFDRVLLDAPCSGTGVISKDPAVKTNKDEKDILRCAHLQKELLLSAIDSVNATSKTGGYLVYCTCSITVEENEWVVDYALKKRNVRLVPTGLDFGQEGFTRFRERRFHPSLRSTRRFYPHTHNMDGFFIAKFKKFSNSIPQSQTGNSETATPTNVDLPQVIPKSENSSQPAKKAKGAAKTKQQLQKQQHPKKASFQKLNGISKGADSELSTVPSVTKTQASSSFQDSSQPAGKAEGIREPKVTGKLKQRSPKLQSSKKVAFLRQNAPPKGTDTQTPAVLSPSKTQATLKPKDHHQPLGRAKGVEKQQLPEQPFEKAAFQKQNDTPKGPQPPTVSPIRSSRPPPAKRKKSQSRGNSQLLLS [NOP2] | 55.4 °C | 53.9 °C | 0.976 | -2.12 | -0.377 | -6.17
5 | MAAAAAEQQQFYLLLGNLLSPDNVVRKQAEETYENIPGQSKITFLLQAIRNTTAAEEARQMAAVLLRRLLSSAFDEVYPALPSDVQTAIKSELLMIIQMETQSSMRKKVCDIAAELARNLIDEDGNNQWPEGLKFLFDSVSSQNVGLREAALHIFWNFPGIFGNQQQHYLDVIKRMLVQCMQDQEHPSIRTLSARATAAFILANEHNVALFKHFADLLPGFLQAVNDSCYQNDDSVLKSLVEIADTVPKYLRPHLEATLQLSLKLCGDTSLNNMQRQLALEVIVTLSETAAAMLRKHTNIVAQTIPQMLAMMVDLEEDEDWANADELEDDDFDSNAVAGESALDRMACGLGGKLVLPMIKEHIMQMLQNPDWKYRHAGLMALSAIGEGCHQQMEGILNEIVNFVLLFLQDPHPRVRYAACNAVGQMATDFAPGFQKKFHEKVIAALLQTMEDQGNQRVQAHAAAALINFTEDCPKSLLIPYLDNLVKHLHSIMVLKLQELIQKGTKLVLEQVVTSIASVADTAEEKFVPYYDLFMPSLKHIVENAVQKELRLLRGKTIECISLIGLAVGKEKFMQDASDVMQLLLKTQTDFNDMEDDDPQISYMISAWARMCKILGKEFQQYLPVVMGPLMKTASIKPEVALLDTQDMENMSDDDGWEFVNLGDQQSFGIKTAGLEEKSTACQMLVCYAKELKEGFVEYTEQVVKLMVPLLKFYFHDGVRVAAAESMPLLLECARVRGPEYLTQMWHFMCDALIKAIGTEPDSDVLSEIMHSFAKCIEVMGDGCLNNEHFEELGGILKAKLEEHFKNQELRQVKRQDEDYDEQVEESLQDEDDNDVYILTKVSDILHSIFSSYKEKVLPWFEQLLPLIVNLICPHRPWPDRQWGLCIFDDVIEHCSPASFKYAEYFLRPMLQYVCDNSPEVRQAAAYGLGVMAQYGGDNYRPFCTEALPLLVRVIQSADSKTKENVNATENCISAVGKIMKFKPDCVNVEEVLPHWLSWLPLHEDKEEAVQTFNYLCDLIESNHPIVLGPNNTNLPKIFSIIAEGEMHEAIKHEDPCAKRLANVVRQVQTSGGLWTECIAQLSPEQQAAIQELLNSA [IPO5] | 54 °C | 53.5 °C | -0.0935 | 0.177 | 1.46 | 1.41
6 | MAAATGPSFWLGNETLKVPLALFALNRQRLCERLRKNPAVQAGSIVVLQGGEETQRYCTDTGVLFRQESFFHWAFGVTEPGCYGVIDVDTGKSTLFVPRLPASHATWMGKIHSKEHFKEKYAVDDVQYVDEIASVLTSQKPSVLLTLRGVNTDSGSVCREASFDGISKFEVNNTILHPEIVECRVFKTDMELEVLRYTNKISSEAHREVMKAVKVGMKEYELESLFEHYCYSRGGMRHSSYTCICGSGENSAVLHYGHAGAPNDRTIQNGDMCLFDMGGEYYCFASDITCSFPANGKFTADQKAVYEAVLRSSRAVMGAMKPGVWWPDMHRLADRIHLEELAHMGILSGSVDAMVQAHLGAVFMPHGLGHFLGIDVHDVGGYPEGVERIDEPGLRSLRTARHLQPGMVLTVEPGIYFIDHLLDEALADPARASFLNREVLQRFRGFGGVRIEEDVVVTDSGIELLTCVPRTVEEIEACMAGCDKAFTPFSGPK [PEPD] | 54.1 °C | 53.8 °C | -0.184 | -0.0689 | -1.19 | -2.41
7 | NARFL | 54.2 °C | 53.8 °C | -0.0938 | 0.0811 | 0.41 | 0.802
8 | MLADLGLIGTIGEDDEVPVEPESDSGDEEEEGPIVLGRRQKALGKNRSADFNPDFVFTEKEGTYDGSWALADVMSQLKKKRAATTLDEKIEKVRKKRKTEDKEAKSGKLEKEKEAKEGSEPKEQEDLQENDEEGSEDEASETDYSSADENILTKADTLKVKDRKKKKKKGQEAGGFFEDASQYDENLSFQDMNLSRPLLKAITAMGFKQPTPIQKACIPVGLLGKDICACAATGTGKTAAFALPVLERLIYKPRQAPVTRVLVLVPTRELGIQVHSVTRQLAQFCNITTCLAVGGLDVKSQEAALRAAPDILIATPGRLIDHLHNCPSFHLSSIEVLILDEADRMLDEYFEEQMKEIIRMCSHHRQTMLFSATMTDEVKDLASVSLKNPVRIFVNSNTDVAPFLRQEFIRIRPNREGDREAIVAALLTRTFTDHVMLFTQTKKQAHRMHILLGLMGLQVGELHGNLSQTQRLEALRRFKDEQIDILVATDVAARGLDIEGVKTVINFTMPNTIKHYVHRVGRTARAGRAGRSVSLVGEDERKMLKEIVKAAKAPVKARILPQDVILKFRDKIEKMEKDVYAVLQLEAEEKEMQQSEAQINTAKRLLEKGKEAVVQEPERSWFQTKEERKKEKIAKALQEFDLALRGKKKRKKFMKDAKKKGEMTAEERSQFEILKAQMFAERLAKRNRRAKRARAMPEEEPVRGPAKKQKQGKKSVFDEELTNTSKKALKQYRAGPSFEERKQLGLPHQRRGGNFKSKSRYKRRK [DDX27] | 52.4 °C | 52.2 °C | 1.15 | -2.35 | 1.57 | 2.15
9 | MDALKSAGRALIRSPSLAKQSWGGGGRHRKLPENWTDTRETLLEGMLFSLKYLGMTLVEQPKGEELSAAAIKRIVATAKASGKKLQKVTLKVSPRGIILTDNLTNQLIENVSIYRISYCTADKMHDKVFAYIAQSQHNQSLECHAFLCTKRKMAQAVTLTVAQAFKVAFEFWQVSKEEKEKRDKASQEGGDVLGARQDCTPSLKSLVATGNLLDLEETAKAPLSTVSANTTNMDEVPRPQALSGSSVVWELDDGLDEAFSRLAQSRTNPQVLDTGLTAQDMHYAQCLSPVDWDKPDSSGTEQDDLFSF [LDLRAP1] | – | 50 °C | 0.0321 | 0.466 | -0.147 | 0.000284
10 | MVLESVARIVKVQLPAYLKRLPVPESITGFARLTVSEWLRLLPFLGVLALLGYLAVRPFLPKKKQQKDSLINLKIQKENPKVVNEINIEDLCLTKAAYCRCWRSKTFPACDGSHNKHNELTGDNVGPLILKKKEV [CISD2] | 54.2 °C | 54.7 °C | 0.0164 | 0.0551 | -4.5 | -5.22
11 | MSLRQRLAQLVGRLQDPQKVARFQRLCGVEAPPRRSADRREDEKAEAPLAGDPRLRGRQPGAPGGPQPPGSDRNQCPAKPDGGGAPNGVRNGLAAELGPASPRRAGALRRNSLTGEEGQLARVSNWPLYCLFCFGTELGNELFYILFFPFWIWNLDPLVGRRLVVIWVLVMYLGQCTKDIIRWPRPASPPVVKLEVFYNSEYSMPSTHAMSGTAIPISMVLLTYGRWQYPLIYGLILIPCWCSLVCLSRIYMGMHSILDIIAGFLYTILILAVFYPFVDLIDNFNQTHKYAPFIIIGLHLALGIFSFTLDTWSTSRGDTAEILGSGAGIACGSHVTYNMGLVLDPSLDTLPLAGPPITVTLFGKAILRILIGMVFVLIIRDVMKKITIPLACKIFNIPCDDIRKARQHMEVELPYRYITYGMVGFSITFFVPYIFFFIGIS [SGPP1] | 53.9 °C | 53.4 °C | -0.122 | -0.0125 | 1.45 | 1.19
